B1: Zinc finger homeobox protein 3, residues 2244 to 2299; numbered along this chain, Q15911 (parent)
chain: SSRTRFTDYQLRVLQDFFDANAYPKDDEFEQLSNLLNLPTRVIVVWFQNARQKARK

Variants of: B1
Experiment: abundance fitness (aPCA) (normalised: wild type 0, dead -1); higher = more abundant; growth selection in yeast, the domain comes from the species named
Conditions: Homo sapiens

Abundance fitness: each site, then its substitutions
A50: G -0.298; H -0.253; I -0.241; E -0.095; C -0.047; D -1.01; K -0.09
E30: S -0.135; G -0.357
P39: Y -0.99; D 0.196; E -0.06; L -0.786; H -0.149; Q -0.028; R -0.258; G -0.297; V -1.09; N -0.157; F -0.715; A -0.342; S 0.035; K -0.197; T -0.209; W -1.08; C -0.634
V45: L -0.12; A 0.004; Y -0.19; M -0.142; D 0.155; P -0.21; Q 0.046; I -0.055; K -0.061; T -0.028; H 0.032; E 0.244; G 0.077; C 0.088; W -0.136; F -0.171; S 0.008
L32: C -0.641; M 0.003; P -1.02; W -0.56; S -0.812; R -0.856; Y -0.19; T -0.497; I -0.17; G -0.842; A -0.568; H -0.878; F -0.546; D -0.637; E -0.957; V -0.151
N49: M -0.287; E 0.141; I -0.259; W -0.252; L -0.334; Y -0.497; R -0.207; S -0.056; H -0.249; C -0.163; Q -0.207; D 0.066; G 0.046; P -0.986; K -0.024; A -0.222; T -0.119; V -0.362; F -0.581
S33: Q -0.507; I -1.08; N -0.728; A -0.109; T -0.316
